Results: paper PMC9911985 (Journal of Molecular Biology, 2023)
Where no end group is shown, it is not given here. MBP = not defined here

Molecular target: the molecule itself
Assay: SEC

Protein: {6xHis-MBP}-SCILLYVVFQKLSARLRALR (domain or fragment, reading uncertain) [6xHis-MBP-selenos 40–59]
- binding result: binds
